Data taken from US12227570B2, “Anti-CEACAM6 antibodies and methods of use” (Singapore Health Services PTE LTD, priority 2016, dated 2025).

Experiments:
[1] = biological target: T1, CEACAM6 (Homo sapiens, UniProt P40199); test: Western blot / flow cytometry binding after PNGase or Tunicamycin treatment; settings: for binding to the antigen band after PNGase treatment: Western blot, PC-9 lysate, N-glycans removed
T1 construct: 20 μg of PC-9 membrane protein extract was first denatured; endogenous in cells; host or cells: PC-9 cells
T1 sequence (P40199 35-320): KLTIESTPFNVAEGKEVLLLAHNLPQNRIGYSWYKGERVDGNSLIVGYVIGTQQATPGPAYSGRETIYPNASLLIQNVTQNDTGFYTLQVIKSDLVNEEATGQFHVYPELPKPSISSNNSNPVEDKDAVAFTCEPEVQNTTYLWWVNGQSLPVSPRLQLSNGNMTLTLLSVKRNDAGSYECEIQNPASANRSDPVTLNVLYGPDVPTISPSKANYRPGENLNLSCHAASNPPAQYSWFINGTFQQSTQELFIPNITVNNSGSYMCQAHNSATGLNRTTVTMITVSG
Protocol: Membrane proteins were extracted from PC-9 cell pellets using the Membrane Protein Extraction Kit (BioVision, USA). Briefly, cell pellets of 5E7 cells were resuspended in 1 mL of Homogenize Buffer and cell membranes broken in a dounce homogenizer. This was transferred into an Eppendorf tube and centrifuged at 700×g for 10 min at 4° C. to remove cell debris. The supernatant was transferred to a new Eppendorf tube and centrifuged at 12,000×g for 30 min at 4° C. to pellet the membrane. The membrane was finally resuspended in 500 μl of 1×Cell Lysis Buffer (Cell Signaling Technology, USA) containing protease inhibitors (Pierce ThermoScientific, USA). The membrane protein solution was clarified with by centrifugation at 15,000×g for 5 min at 4° C., to remove any insoluble proteins. Protein was quantified using the Pierce […] Protein Assay Reagent.
PC-9 membrane protein extracts, or IP products were denatured by in protein loading dye containing SDS at a final concentration of 1%, and heated at 95° C. for 5 min. The sample was then loaded into pre-cast gradient gel (NuPAGE 4-12% gradient gel, Invitrogen), and separated by SDS-PAGE running MOPS Running Buffer (NuPAGE Invitrogen, USA). After gel electrophoresis, the resolved proteins were transferred onto a polyvinylidene fluoride (PVDF) membrane (BioRad, USA) in a transfer buffer containing 20% methanol, 10% Tris-Glycine in DI water at constant voltage of 110V for 90 min.
The membrane was then blocked with 5% milk prepared in PBS/0.1% Tween-20 (PBS-T) for 30 min at room temperature. The membrane was then washed in PBS-T, followed by overnight incubation of GR6A04 at 2 μg/mL in 2.5% milk at 4° C. Subsequently, the membrane was washed in PBS-T, before incubation with goat anti-mouse secondary antibodies horseradish peroxidase-conjugated (1:10000, Dako) for 1 hour at room temperature. […]
PNGase digestion was carried out according to manufacturer's protocol (New England Biolabs). […] Digested proteins were subsequently analysed by Western blotting as described above. […]

[2] = test system: A549; test: Flow cytometry binding on A549 lung adenocarcinoma; assay type: cell-based; settings: A549 parental, heterogeneous binding
Protocol: (§1) Cells were harvested as single cell suspensions using trypsin. 1E5 cells were used per sample, and incubated with 100 μl of mAb culture supernatant for 30 min. Cells were then washed with 1% bovine serum albumin in PBS, and further incubated with 100 μl of goat anti-mouse antibody fluorescein isothiocyanate (FITC)-conjugated (1:500, DAKO, Denmark) for 15 min at 4° C. in the dark. Cells were again washed and resuspended in 200 μL of 1% BSA/PBS for analysis on Guava® easy Cyte 8HT Benchtop Flow Cytometer (Merck Millipore, USA). For interrogation of […] binding, cells were fixed with 4% PFA/PBS (Affymetrix, USA) at room temperature for 10 min, washed in PBS, and permeabilised with 0.1% triton/PBS for 5 min at room temperature, before proceeding with incubation with mAb supernatant/primary antibody. For staining with propidium iodide, PI was added to a final concentration of 5 μg/mL for 5 min just prior to analysis by the flow cytometer.

[3] = biological target: T1, CEACAM6; test: Binding after siRNA knock down of CEACAM6; assay type: cell-based; settings: PC-9 cells; Western blot and flow cytometry
[4] = test system: CL75 GR clone; test: Mab-ZAP indirect saporin conjugate cell growth inhibition; assay type: cell-based; settings: GR6A04 indirectly conjugated with saporin via anti-mouse antibody
Protocol: (§2) Cells were seeded into a black coated 96 well plate (Grenier Bio-one, UK) at a range of density from 1000-5000 cells per well (depending on the cell type used) and 90 μL per well. The plate was then incubated for 24 hours at 37° C. in humidified air with 5% CO2. After 24 hours, 10 μL of mAb or buffer was added to each well and the plate was again placed at 37° C. in humidified air with 5% CO2. 4 days after addition of mAb or buffer, 100 μL of CTG substrate (Promega, Wisconsin, USA) was added to each well. The plate was then left in the dark for 10 minutes, with vigorous shaking. The cell viability of the samples was then quantified using Tecan I-control (Tecan, Switzerland).

[5] = test system: PC-9; test: as above; assay type: cell-based; settings: GR6A04 indirectly conjugated with saporin via anti-mouse antibody; PC-9 sensitive parental line
Protocol: as §2

[6] = test system: NSCLC lines, GR HCC827 clones, breast cancer lines, colorectal cancer lines; test: Flow cytometry binding on other cancer cell lines; assay type: cell-based
Protocol: as §1

[7] = test system: PC-9 Gefitinib resistant clones; test: Propidium iodide staining (FL-3) for cytotoxicity of mAb alone; assay type: cell-based; settings: cells incubated with the mAb alone
Protocol: as §1

B1: GR6A04: mouse IgG1, κ anti-CEACAM6 monoclonal antibody, VH SEQ ID NO:1, VL SEQ ID NO:2, binds N-glycosylated CEACAM6 (antibody, V domains shown)
VH: SGPELVKPGASVKMSCKASGNTFTSYVMHWVKQKPGQGLEWIGYINPYNDGTKYNEKFKGKATLTSDKSSSTAYMELSSLTSEDSAVYYCARSTARATPYFYAMDYWGQGTSVTVSS
VL: DILMTQSPSSLAVTAGEKVTMRCKSSQSLLWSVNQNSYLSWYQLKQGQPPKLLLYGASIRESWVPDRFTGSGSGTDFTLTISNVHVEDLAVYYCQHNHGSFLPYTFGGGTKLEIK
modifications: Isolated antibody fragment
binding after PNGase and Tunicamycin treatment ([1]; PNGase digestion, Tunicamycin N-glycosylation inhibitor): affected | binding to the antigen band after PNGase treatment [1]: abolished binding | binding to the antigen band after PNGase treatment ([1]; listed as GR 6A04): abolished | GR6A04+ population (positive binding tail) [2]: 15-30% | binding after knockdown of CEACAM6 expression [3]: decrease | cell growth inhibited [4]: 28% | cell growth inhibited [5]: 43% | GR HCC827 clones with binding [6]: 2 of 6 | breast cancer lines with reactivity [6]: 3 of 13 | colorectal cancer lines with reactivity [6]: 1 of 2 | NSCLC lines with partial binding ([6]; A549 and Calu-3 positive): 2 of 4 | cell cytotoxicity (propidium iodide staining, FL-3) [7]: no apparent cell cytotoxicity | cell cytotoxicity (propidium iodide staining, FL-3) ([7]; listed as GR 6A04): no inherent cytotoxity
